Experimental data from publication PMC4117452, “Immunolocalization of Anti-Hsf1 to the Acetabular Glands of Infectious Schistosomes Suggests a Non-Transcriptional Function for This Transcriptional Activator”.

Biological target: T1, MBP-SmHsf1 (Schistosoma mansoni, UniProt G4VTC5 1-658)
T1 sequence: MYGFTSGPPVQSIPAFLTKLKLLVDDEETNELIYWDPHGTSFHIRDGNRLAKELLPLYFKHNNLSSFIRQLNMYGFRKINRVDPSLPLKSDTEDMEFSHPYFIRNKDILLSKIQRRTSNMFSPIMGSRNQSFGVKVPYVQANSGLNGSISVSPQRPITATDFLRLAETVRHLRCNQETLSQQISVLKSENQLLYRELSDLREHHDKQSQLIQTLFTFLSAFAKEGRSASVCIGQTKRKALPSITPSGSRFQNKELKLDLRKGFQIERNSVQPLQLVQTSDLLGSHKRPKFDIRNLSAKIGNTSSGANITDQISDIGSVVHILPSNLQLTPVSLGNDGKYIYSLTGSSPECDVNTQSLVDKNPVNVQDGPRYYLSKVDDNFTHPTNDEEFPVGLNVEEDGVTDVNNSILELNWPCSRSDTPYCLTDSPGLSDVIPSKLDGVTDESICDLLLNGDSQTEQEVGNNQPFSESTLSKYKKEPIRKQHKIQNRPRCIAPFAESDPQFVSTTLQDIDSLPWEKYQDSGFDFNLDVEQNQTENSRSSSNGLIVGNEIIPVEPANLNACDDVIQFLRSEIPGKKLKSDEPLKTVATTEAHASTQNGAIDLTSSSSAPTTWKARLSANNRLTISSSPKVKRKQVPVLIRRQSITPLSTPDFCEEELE
Experiment: competition; EMSA vs oKI068(ds), 250-fold unlabeled; 'great affinity'; LightShift EMSA binding buffer with glycerol, MgCl2, poly-dIdC, NP-40 (concentrations, pH and temperature not stated), 30 min; 5% native PAGE, 0.5x TBE
Conditions: protein: recombinant; tags: N-terminal MBP (pMAL-c5X); chain copies: 3; blunt

B1: oKI073/074 consensus HSE (dsDNA)
DNA 1: GATCGTCATAGAAAGTTCTAGAACGATC
DNA 2: GATCGTTCTAGAACTTTCTATGACGATC
B1: binds.
